Assay results from patent US9631002B2, “Methods and compositions for producing active vitamin K-dependent proteins” (The University of North Carolina at Chapel Hill, priority 2010, dated 2017).
Residue numbers refer to the chain shown, from its start. Names and notes keep the numbering of the source. “Also recorded” adds a separate entry of the source.

Assays:
[1] = tested on: FIXgla-PC carboxylation in HEK 293 cells; assay type: cell-based, human; conditions: 11 μM vitamin K or 5 μM KO, HEK293
[2] = tested on: carboxylation of FIXgla-PC reporter protein in HEK293 cells (reduction of KO to vitamin K); assay: Cell-based VKOR activity assay: recombinant VKOR/VKORH expressed in FIXgla-PC/HEK293 cells with KO and warfarin, carboxylated reporter by ELISA; design: species or system human; conditions: for ability of human VKOR with replaced residues 122-139 to use KO to carboxylate the reporter / support of carboxylation of the reporter protein with KO as substrate: 5 μM KO; for ability of human VKOR with replaced residues 122-139 to use KO to carboxylate the reporter: 2 μM warfarin, 48 h, HEK293 (FIG. 11C); for support of carboxylation of the reporter protein with KO as substrate: 4 μM warfarin, 48 h (FIG. 15B); for activity relative to MT-VKORH: KO as substrate, FIXgla-PC/HEK293 (FIG. 21B); for carboxylation activity of modified human VKOR: FIGS. 23, 33; for Relative activity: Human Y139F: VKOR of the organism compared to human Y139F VKOR, cell-based carboxylation
[3] = tested on: carboxylation of FIXgla-PC reporter protein in AV12 cells (reduction of vitamin K to KH2); assay: Cell-based VKOR activity assay in FIXgla-PC/AV12 or FIXgla-PC/VKOR-Y139F/AV12 cells, carboxylated reporter by ELISA; design: species or system Syrian golden hamster; conditions: for ability of human VKOR with replaced residues 122-139 to use vitamin K to carboxylate the reporter: 11 μM K, 2 μM warfarin, 48 h, FIXgla-PC AV-12 (FIG. 11B); for activity in reducing vitamin K to KH2 to support carboxylation: transient expression in FIXgla-PC/VKOR-Y139F/AV12, KO and warfarin (FIG. 19A); for ability to reduce vitamin K to KH2 compared with MT-VKORH: FIXgla-PC/VKOR-Y139F/AV12 (FIG. 21C)

## CC(=CCC12OC1(C)C(=O)c1ccccc1C2=O)CCCC(C)CCCC(C)CCCC(C)C (stereo not shown) [KO, Vitamin K1 2,3-epoxide]
[1]
  increase in secretion of carboxylated reporter protein compared to no additions: approximately 25 fold

B1: hVKOR Arabidopsis: human VKOR with residues 122-139 replaced by Arabidopsis VKOR 185-202, SEQ ID NO:30 (protein)
chain: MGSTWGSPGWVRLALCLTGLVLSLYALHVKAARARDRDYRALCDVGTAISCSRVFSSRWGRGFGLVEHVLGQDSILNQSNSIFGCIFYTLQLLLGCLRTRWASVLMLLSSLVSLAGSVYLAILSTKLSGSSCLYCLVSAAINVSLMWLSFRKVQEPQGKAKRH
modifications: Human VKOR with amino acids 122-139 substituted with amino acids 185-202 of A. thaliana VKOR (RefSeq accession no. NP_567988)
[2]
  ability of human VKOR with replaced residues 122-139 to use KO to carboxylate the reporter: only the human VKOR substituted with the M. tuberculosis domain functions as a VKOR
[3]
  ability of human VKOR with replaced residues 122-139 to use vitamin K to carboxylate the reporter: can utilize vitamin K to produce carboxylated reporter protein

B2: AR-VKORH: Arabidopsis VKORH, NP_567988.1, SEQ ID NO:19 (protein, listed as Arabidopsis thaliana)
chain: MMARFVSVSSCQFHFGFREVSPPSVTSYPRRFEVSDRRFPAIPIKCSSSEPENGEDSAPSLSSSSSSSTSEVSTSNSSTYNWYTGIGGIGMLDTAYLTYLKVTGSDAFCPIGGGTCGDVLNSDYAVVFGVPLPVIGFVMYGVVTALSAELGEGNLPFGISKSNGRFALFGITTAMASASAYFLYILSTKLSGSSCLYCLVSAFLSFSLFFLSVKDVKLQEIQQVVGLQICLAIIVVASLTASYSTAQPIPSRSGDIELPYFRTEISSSSSPYAIALAKHLNSIGAKMYGAFWCSHCLEQKEMFGREAAKELNYVECFPDGYKKGTKILKACADAAIEGFPTWIINDKVLS
[2]
  support of carboxylation of the reporter protein with KO as substrate: only MT-VKORH supported carboxylation
[3]
  activity in reducing vitamin K to KH2 to support carboxylation: no significant activity

B3: SA-VKORH: Salinispora tropica CNB-440 VKORH, SEQ ID NO:24 (protein)
chain: MTTTANRPVTTPAERHFLAAVTAWVLTIGGAVGLLAAAALTVEKINLLADPGYVPTCSINPILSCGSVMNTPQAAVFGFPNPLLGIAGFAVVTTLGVTLLATGHLPRWMWLGLQGGVTFGVVFVHWLIYQSLYVIGALCPYCMVVWAVTIPIFLYTTLQTLRDNTTALPRALRRVTERVARYHSLVLVVWAAFVVVVILHRFWDYWSTLG
modifications: Salinispora tropica CNB-440
[2]
  activity relative to MT-VKORH: 30%
[3]
  ability to reduce vitamin K to KH2 compared with MT-VKORH: higher than the KO to vitamin K reduction

B4: RO-VKORH: Roseiflexus sp. RS-1 VKORH, SEQ ID NO:20 (protein)
chain: MRRFLLTLIVSCMLTLSLSVASAAATVRAVLFYSPRCGHCHMVISEHLPPLQQRYGDQLQILMIDVDQAQGAALYREAIAVYAIPEARRGVPTMIISDTVLVGSVEIPQRLPGLIETLLARGGSDWPPIPGLADLLATVPTSAPAPPTLPPATAETPPFLRDLPANALAVVVLAGMLLTVMWAGITWSRPAQPPTRWRDRSIPLLAIGGMAVAAYLTFIETTGAPALCGPVGDCNAVQQSEFARLFGTIPVGAAGVAGYGAILIVWIVAHLLPGTSGERAALLLPALALIGTLFSIYLTFLEPFVIGATCLWCLTSAVIMTGLLWLSMPYRQRSTSRGYARR
modifications: Roseiflexus sp. RS-1
[2]
  support of carboxylation of the reporter protein with KO as substrate: only MT-VKORH supported carboxylation
[3]
  activity in reducing vitamin K to KH2 to support carboxylation: significant activity

B5: VKOR-CM: human VKOR with R37G, R35G, R33G, K30L, G9R, S7R and G6R mutations, SEQ ID NO:35 (protein)
chain: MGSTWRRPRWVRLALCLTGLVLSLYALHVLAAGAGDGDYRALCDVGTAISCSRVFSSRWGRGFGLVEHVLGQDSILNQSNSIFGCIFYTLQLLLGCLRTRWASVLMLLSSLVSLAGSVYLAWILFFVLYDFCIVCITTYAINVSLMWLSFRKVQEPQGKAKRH
modifications: Human VKOR comprising an R37G mutation, an R35G mutation, an R33G mutation, a K30L mutation, a G9R mutation, an S7R mutation and a G6R mutation
[2]; charge-mutated human VKOR (FIG. 32)
  ability to carboxylate vitamin K dependent reporter protein relative to wild type / control VKOR: approximately fourfold; also recorded: about four times more active

B6: V45N: human VKOR comprising a V45N substitution introducing an additional glycosylation site, SEQ ID NO:25 (protein)
chain: B5 chain with R6G, R7S, R9G, L30K, G33R, G35R, G37R, V45N, C51A
modifications: Human VKOR with V45N mutation
[2]
  carboxylation activity of modified human VKOR: increased carboxylation activity

B7: Human VKOR with amino acids 44-50 substituted with amino acids DYKDDDDK (Flag tag): human VKOR cysteine loop 44-50 replaced with FLAG tag, SEQ ID NO:34 (protein)
chain: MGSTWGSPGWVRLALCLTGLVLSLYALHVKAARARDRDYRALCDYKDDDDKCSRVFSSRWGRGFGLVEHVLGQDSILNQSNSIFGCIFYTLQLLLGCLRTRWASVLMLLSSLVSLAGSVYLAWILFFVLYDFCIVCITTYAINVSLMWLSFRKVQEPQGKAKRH
modifications: Human VKOR with amino acids 44-50 substituted with amino acids DYKDDDDK (Flag tag)
[2]
  carboxylation activity of modified human VKOR: increased activity

B8: SY-VKORH: Synechococcus sp. VKORH, SEQ ID NO:21 (protein)
chain: MASYLKLKAQEETWLQRHSRLILAILAGLGSLLTAYLTYTKLTEQPAAFCTGDGGCDLVLSSRWAEFLGIPTAAVGLLGFLGVLALAVLPDGLPLVKRWRWPALFGLVSAMTAFEMYMLYLMVAVLRQFCMYCTTAIILVAGLGLVTVLGHRWLDGGKLAFSYILVAFLTLVTTIGVYANQVPPPSPLAVGLAAHLRQIGGTMYGAYWCPHCQDQKELFGAAFDQVPYVECSPNGPGTPQAQECTEAGITSYPTWIINGRTYTGVRSLEALAVASGYPLEEGR
modifications: Synechococcus sp. JA-2-3B′a(2-13)
[2]
  support of carboxylation of the reporter protein with KO as substrate: only MT-VKORH supported carboxylation
[3]
  activity in reducing vitamin K to KH2 to support carboxylation: no significant activity

B9: Takifugu: Takifugu VKOR NP_001027838, SEQ ID NO:7, Y138F (protein)
chain: MAIPTWERKVRIFLCVFGLLLSVYALHVELSRERNPDYRAMCDLGESVSCSKVFSSRWGRGFGLVQYFVDKDSPLNQPNSVLGIIFYTLQMCLGLSLSRKAALFLVFSSWVSVAGSLYLASILAFVLGDFCMVCVSTFLVNFVLLFTNLKRRRAIEGLKEKSG
modifications: Takifugu rubripes
[2]
  Relative activity: Human Y139F: Yes, greater

B10: CO-VKORH: Corynebacterium jeikeium K411 VKORH, SEQ ID NO:23 (protein, listed as Corynebacterium jeikeium)
chain: MWVWWGREGVSNKESEHMNGLGATKRFGYTFLVLSTIGLIFSALIMHDKVQMALDPNFEPACTFNEVISCTDVMASDQAATFGFANPFIGMIGFPVMMTLAVMLIVGAKLPRWIWYCALAGLAFGVAFVHWLAYSAIYSIGALCPYCMAVWAATLPMFVMTLVHIQREKRREAGEDVAHSALGMPLVVIIAWFLAFTALILDQFVF
[2]
  activity relative to MT-VKORH: 70%
[3]
  ability to reduce vitamin K to KH2 compared with MT-VKORH: higher than the KO to vitamin K reduction

B11: Xenopus tropicalis: Xenopus VKOR NP_001006928, SEQ ID NO:8, Y138F (protein)
chain: MAVPGWERAVRLLLCGVGIALSVYAYHVETSRERDANYTALCDINPSISCSKVFTSRWGRGFGLVEQILGRQSFLNQPNSVFGILFYGLQVLLGFSGSVGAAAALLGTSLVSIAGSLYLAYILFYVLEDFCVICVTTFALNFCLLLLNLKRLASLRAPPKKQKNKRKKN
modifications: Xenopus (Silurana) tropicalis
[2]
  Relative activity: Human Y139F: Yes, greater

B12: Amphioxus: Amphioxus VKOR, SEQ ID NO:11, Y144F (protein, listed as Branchiostoma floridae)
chain: MAAGRSFRLPIWEILSRCMLCTAGLVLSGYAFYVETSKEADHSYTAMCDVSESVSCSKVFTSRFGRGFGLVEPILGADSPLNLPNSIFGLAFYIMQLCLGVVPGMSVSIVLLATSVLSCLGCVYLAYILYFILQDACIVCISTFVVNTFMLIVNIKRVLLQRKAILKKQQ
[2]
  Relative activity: Human Y139F: Yes, greater

B13: Trichoplax: Trichoplax VKOR XM_002107720.1, SEQ ID NO:15 (protein, listed as Trichoplax adhaerens)
chain: B12 chain with F144Y, F149L, I152V, I165L
[2]
  Relative activity: Human Y139F: No

B14: hVKOR DsbB: human VKOR with residues 122-139 replaced by bacterial DsbB 33-50, SEQ ID NO:32 (protein)
chain: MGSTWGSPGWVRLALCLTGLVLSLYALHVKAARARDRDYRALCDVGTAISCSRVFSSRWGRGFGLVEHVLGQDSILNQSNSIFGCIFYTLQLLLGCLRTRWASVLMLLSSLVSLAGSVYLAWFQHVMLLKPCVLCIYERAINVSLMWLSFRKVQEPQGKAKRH
modifications: Human VKOR with amino acids 122-139 substituted with amino acids 33-50 of DsbB enzyme (RefSeq accession no. ZP_03067529)
[2]
  ability of human VKOR with replaced residues 122-139 to use KO to carboxylate the reporter: only the human VKOR substituted with the M. tuberculosis domain functions as a VKOR
[3]
  ability of human VKOR with replaced residues 122-139 to use vitamin K to carboxylate the reporter: can utilize vitamin K to produce carboxylated reporter protein
